According to patent US20210128616A1:

Biological target: CD19 (UniProt P15391)
Test: cell-based or functional assay

UniProt P15391, sequence (P15391 20-291 limits assumed): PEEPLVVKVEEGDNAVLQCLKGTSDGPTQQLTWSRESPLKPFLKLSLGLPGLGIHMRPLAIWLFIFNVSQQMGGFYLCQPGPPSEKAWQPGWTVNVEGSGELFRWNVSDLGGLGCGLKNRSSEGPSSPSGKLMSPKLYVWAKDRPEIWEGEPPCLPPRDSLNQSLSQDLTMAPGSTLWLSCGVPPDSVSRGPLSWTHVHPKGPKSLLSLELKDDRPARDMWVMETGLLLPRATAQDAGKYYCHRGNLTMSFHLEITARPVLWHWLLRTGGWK

relative standard deviation among lots of a parameter indicative of TNFα production by CD4+ CAR+ T cells after stimulation with CD19: 37%
relative standard deviation among lots of a parameter indicative of TNFα production by CD8+ CAR+ T cells after stimulation with CD19: 51%
Substance: anti-CD19 chimeric antigen receptor (CAR) with an anti-CD19 scFv derived from murine antibody FMC63 (VL-linker-VH orientation), an immunoglobulin-derived spacer, a CD28-derived transmembrane domain, a 4-1BB costimulatory region and a CD3-zeta intracellular signaling domain
